# Experimental data as given in the supplement of paper PMC11865577.
# Legend:
# Assay in all cases: pull-down binding Z-score (relative to library population); higher = stronger binding
# [1] = test system: G-clamp-N3 (biotin conjugate); details: RNA library: Library-1 (pre-miRNA loops + repeats)
# How it was run: (§1)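 An RNA library (1 μg) carrying a Cy5 or Cy3 end label was heat-folded in phosphate/NaCl/KCl buffer, then incubated for 60 min at 25 °C with streptavidin beads loaded with 100 pmol of biotin-conjugated small molecule. The beads were washed three times, and bound RNA was released in hot SDS and hybridised to a DNA barcode microarray for 20 h at 55.5 °C. Each binding score was derived by subtracting the signal from beads without compound, averaging the barcoded replicate probes after removing the highest and lowest, and expressing the result as a Z-score relative to the library mean and standard deviation.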
# [2] = test system: TO-3-N3 (biotin conjugate); details: RNA library: Library-2
# How it was run: as §1
# [3] = test system: TO-3-N3-2 (biotin conjugate); details: RNA library: Library-2
# How it was run: as §1
# TO-N3 (biotin conjugate) = details: RNA library: Library-2
# How it was run: as §1
# [4] = test system: TO-N3-2 (biotin conjugate); details: RNA library: Library-2
# How it was run: as §1
Sequence,pull-down binding Z-score [1],pull-down binding Z-score [2],pull-down binding Z-score [3],pull-down binding Z-score (TO-N3 (biotin conjugate)),pull-down binding Z-score [4]
GCGUCGCUUCUCCCUAAUGUUGCC [hsa-mir-6781],-0.106,-0.385,0.089,-0.068,0.502
GCUAACUGUGACCUUAGC [hsa-mir-4729],-0.373,0.00513,-0.181,-0.187,-0.478
GCUACUGUCUGCACCUGUCACUAGCAGU [hsa-mir-130a],-1.49,-0.279,-0.0477,1.12,1.58
GCUAGUGCUGGCUCAAUGCAAUGC [hsa-mir-502],-0.151,-0.322,-0.0546,-0.0527,0.637
GCUCAAGCCACAGCAGGGUGUUUAGCGCUCUUCAGUGGCUCCAG [hsa-mir-1203],-1.23,-0.00832,-0.102,0.563,1.14
GCUCCCAACCAACCACUUCCACAUGUUUUGCUGGU [hsa-mir-4451],-1.34,0.136,0.239,0.244,0.308
GCUCUAAUAAUUUAUUCUAAUAAUAAUUUAGAUC [hsa-mir-7976],-0.269,-0.976,-0.379,-1.19,-1.31
GCUCUGGGGAUUUGGUCUCACAGC [hsa-mir-3940],0.507,-0.54,-0.38,-0.497,-0.339
GCUGAAACACAGUUGGUUUGUGUACACUGGC [hsa-mir-24-2],0.212,-0.415,-0.521,-0.193,-0.00258
GCUGAACCCCUGCCCCUGGAGCCCCCAGCAGGGCCCUC [hsa-mir-7162],-1.32,0.665,0.612,1.34,1.85
GCUGAGCCCUUUGAUAAGGGGGAGGUU [hsa-mir-8080],-0.454,0.21,-0.219,0.361,0.545
GCUGAGGUUGCGUUGACGCUCGC [hsa-mir-1292],0.447,0.0445,-0.0926,0.384,1.17
GCUGCACUGUCUCCGUCUGCGG [hsa-mir-4519],-0.081,-0.24,0.0588,0.595,1.43
GCUGCAGAUCUUUGUCUAAGCAGC [hsa-mir-4498],-0.879,-0.346,-0.207,-0.555,-0.274
GCUGCAGGCAAAGCUGGGG [hsa-mir-711],-0.426,0.431,0.123,0.901,1.07
GCUGCCAGGAAAUCCCUAUUUCAUAUAAGAGGGGGCUGGCUGGUUGC [hsa-mir-448],1.08,0.185,0.236,0.447,0.355
GCUGCCAUCUCCCACUGGCUGC [hsa-mir-4736],-0.492,-0.569,-0.495,-0.536,0.0852
GCUGCCCCUUUGCUCUCUGGGGUAGC [hsa-mir-3614],0.721,0.491,0.0223,0.258,-0.388
